Sequences and labels used below:
T1: human APJ receptor (human, UniProt P35414 1-380)
T1 sequence (looked up): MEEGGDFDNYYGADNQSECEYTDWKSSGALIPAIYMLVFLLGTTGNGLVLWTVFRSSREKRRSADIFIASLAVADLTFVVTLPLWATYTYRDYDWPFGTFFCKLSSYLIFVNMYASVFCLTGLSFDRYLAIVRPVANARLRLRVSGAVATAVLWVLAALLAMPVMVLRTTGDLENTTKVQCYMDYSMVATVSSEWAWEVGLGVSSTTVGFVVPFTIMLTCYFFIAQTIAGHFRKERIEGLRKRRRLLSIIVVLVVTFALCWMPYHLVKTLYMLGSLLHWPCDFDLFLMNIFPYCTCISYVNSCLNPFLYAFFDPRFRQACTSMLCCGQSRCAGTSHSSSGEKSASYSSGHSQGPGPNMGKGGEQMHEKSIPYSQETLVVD

T2: rat APJ receptor (rat, UniProt Q9JHG3 1-377)
T2 sequence (looked up): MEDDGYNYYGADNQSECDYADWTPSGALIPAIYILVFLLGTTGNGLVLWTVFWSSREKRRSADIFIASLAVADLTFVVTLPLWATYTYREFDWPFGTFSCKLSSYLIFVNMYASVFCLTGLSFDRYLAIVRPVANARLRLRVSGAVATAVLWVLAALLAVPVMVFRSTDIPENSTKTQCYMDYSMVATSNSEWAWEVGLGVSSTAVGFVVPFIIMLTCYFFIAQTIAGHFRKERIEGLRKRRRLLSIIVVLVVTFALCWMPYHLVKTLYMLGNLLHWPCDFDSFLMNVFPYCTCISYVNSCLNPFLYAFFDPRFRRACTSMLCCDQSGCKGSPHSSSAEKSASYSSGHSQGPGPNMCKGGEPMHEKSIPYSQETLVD

B1: SEQ ID NO: 84 (peptide)
peptide: Ac-[hArg][dR]Q[hArg]P[dR][NMeL]SHKE[Oic][Phe(4-I)]P[dBip]-OH
SMILES: CC(=O)N[C@@H](CCCCNC(=N)N)C(=O)N[C@H](CCCNC(=N)N)C(=O)N[C@@H](CCC(N)=O)C(=O)N[C@@H](CCCCNC(=N)N)C(=O)N1CCC[C@H]1C(=O)N[C@H](CCCNC(=N)N)C(=O)N(C)[C@@H](CC(C)C)C(=O)N[C@@H](CO)C(=O)N[C@@H](Cc1c[nH]cn1)C(=O)N[C@@H](CCCCN)C(=O)N[C@@H](CCC(=O)O)C(=O)N1[C@H](C(=O)N[C@@H](Cc2ccc(I)cc2)C(=O)N2CCC[C@H]2C(=O)N[C@H](Cc2ccc(-c3ccccc3)cc2)C(=O)O)C[C@@H]2CCCC[C@@H]21
B2: SEQ ID NO: 82 (peptide)
peptide: Ac-[hArg][dR]Q[hArg]P[dR][NMeL]SEKG[Oic][Phe(4-I)]P[dBip]-OH
SMILES: CC(=O)N[C@@H](CCCCNC(=N)N)C(=O)N[C@H](CCCNC(=N)N)C(=O)N[C@@H](CCC(N)=O)C(=O)N[C@@H](CCCCNC(=N)N)C(=O)N1CCC[C@H]1C(=O)N[C@H](CCCNC(=N)N)C(=O)N(C)[C@@H](CC(C)C)C(=O)N[C@@H](CO)C(=O)N[C@@H](CCC(=O)O)C(=O)N[C@@H](CCCCN)C(=O)NCC(=O)N1[C@H](C(=O)N[C@@H](Cc2ccc(I)cc2)C(=O)N2CCC[C@H]2C(=O)N[C@H](Cc2ccc(-c3ccccc3)cc2)C(=O)O)C[C@@H]2CCCC[C@@H]21
B3: SEQ ID NO: 86 (peptide)
peptide: Ac-[hArg][dR]Q[hArg]P[dR][NMeL]SHKG[Oic]EP[dBip]-OH
SMILES: CC(=O)N[C@@H](CCCCNC(=N)N)C(=O)N[C@H](CCCNC(=N)N)C(=O)N[C@@H](CCC(N)=O)C(=O)N[C@@H](CCCCNC(=N)N)C(=O)N1CCC[C@H]1C(=O)N[C@H](CCCNC(=N)N)C(=O)N(C)[C@@H](CC(C)C)C(=O)N[C@@H](CO)C(=O)N[C@@H](Cc1c[nH]cn1)C(=O)N[C@@H](CCCCN)C(=O)NCC(=O)N1[C@H](C(=O)N[C@@H](CCC(=O)O)C(=O)N2CCC[C@H]2C(=O)N[C@H](Cc2ccc(-c3ccccc3)cc2)C(=O)O)C[C@@H]2CCCC[C@@H]21
B4: SEQ ID NO: 87 (peptide)
peptide: Ac-[hArg][dR]Q[hArg]P[dR][NMeL]SHKG[Oic][Phe(4-I)]E[dBip]-OH
SMILES: CC(=O)N[C@@H](CCCCNC(=N)N)C(=O)N[C@H](CCCNC(=N)N)C(=O)N[C@@H](CCC(N)=O)C(=O)N[C@@H](CCCCNC(=N)N)C(=O)N1CCC[C@H]1C(=O)N[C@H](CCCNC(=N)N)C(=O)N(C)[C@@H](CC(C)C)C(=O)N[C@@H](CO)C(=O)N[C@@H](Cc1c[nH]cn1)C(=O)N[C@@H](CCCCN)C(=O)NCC(=O)N1[C@H](C(=O)N[C@@H](Cc2ccc(I)cc2)C(=O)N[C@@H](CCC(=O)O)C(=O)N[C@H](Cc2ccc(-c3ccccc3)cc2)C(=O)O)C[C@@H]2CCCC[C@@H]21
B5: SEQ ID NO: 83 (peptide)
peptide: Ac-[hArg][dR]Q[hArg]P[dR][NMeL]SHEG[Oic][Phe(4-I)]P[dBip]-OH
SMILES: CC(=O)N[C@@H](CCCCNC(=N)N)C(=O)N[C@H](CCCNC(=N)N)C(=O)N[C@@H](CCC(N)=O)C(=O)N[C@@H](CCCCNC(=N)N)C(=O)N1CCC[C@H]1C(=O)N[C@H](CCCNC(=N)N)C(=O)N(C)[C@@H](CC(C)C)C(=O)N[C@@H](CO)C(=O)N[C@@H](Cc1c[nH]cn1)C(=O)N[C@@H](CCC(=O)O)C(=O)NCC(=O)N1[C@H](C(=O)N[C@@H](Cc2ccc(I)cc2)C(=O)N2CCC[C@H]2C(=O)N[C@H](Cc2ccc(-c3ccccc3)cc2)C(=O)O)C[C@@H]2CCCC[C@@H]21

Data on five molecules can be found in patent US10941182 (Amgen, dated 2021).

Non-standard residues stand in square brackets, D forms with d. dBip = N[C@H](Cc1ccc(-c2ccccc2)cc1)C(=O)O; Oic = O=C(O)[C@@H]1C[C@@H]2CCCC[C@@H]2N1; Phe(4-I) = N[C@@H](Cc1ccc(I)cc1)C(=O)O; hArg = N=C(N)NCCCC[C@H](N)C(=O)O; NMeL = CN[C@@H](CC(C)C)C(=O)O

One assay deals with T1, human APJ receptor. The assay is described as follows: cell-based or functional assay.
Turning to B1, the “EC50 Human APJ Receptor” value turned out to be 18.1 nM.
Take B2: the “EC50 Human APJ Receptor” value was determined as 23.2 nM.
Same read-out and setting: in the case of B3 it was over 4170 nM.
On the same count and under the same terms, in the case of B4 it was 52.7 nM.
With B5, the “EC50 Human APJ Receptor” value was found to be 54.5 nM.

For another assay, the target named is T2, rat APJ receptor. The assay can be described thus: cell-based or functional assay.
For B1, the “EC50 Rat APJ Receptor” value came to 89.3 nM.
Still for that read-out and setting: next, B2: 53.9 nM; B3: over 4170 nM.
On the same count and under the same terms, next, B4: 58.9 nM; B5: 84.7 nM.
